B1: CTX137: Chimeric Tim4 receptor (SEQ ID NO:68): Tim4 binding domain, CD28 transmembrane, CD28 costimulatory, DAP12 signaling domain; expressed in T cells (protein)
chain: MSKEPLILWLMIEFWWLYLTPVTSETVVTEVLGHRVTLPCLYSSWSHNSNSMCWGKDQCPYSGCKEALIRTDGMRVTSRKSAKYRLQGTIPRGDVSLTILNPSESDSGVYCCRIEVPGWFNDVKINVRLNLQRASTTTHRTATTTTRRTTTTSPTTTRQMTTTPAALPTTVVTTPDLTTGTPLQMTTIAVFTTANTCLSLTPSTLPEEATGLLTPEPSKEGPILTAESETVLPSDSWSSVESTSADTVLLTSKESKVWDLPSTSHVSMWKTSDSVSSPQPGASDTAVPEQNKTTKTGQMDGIPMSMKNEMPISQFWVLVVVGGVLACYSLLVTVAFIIFWVRSKRSRLLHSDYMNMTPRRPGPTRKHYQPYAPPRDFAAYRSYFLGRLVPRGRGAAEAATRKQRITETESPYQELQGQRSDVYSDLNTQRPYYK
modifications: Tim4 binding domain-CD28 transmembrane-CD28 costimulatory signaling domain-DAP12 signaling domain; SIGNAL (1)..(24)
notes: expressed in T cells
B2: CTX143: Chimeric Tim4 receptor (SEQ ID NO:45): Tim4 binding domain, modified IgG4 hinge, CD28 transmembrane, CD28 costimulatory, DAP12 signaling domain (protein)
chain: MSKEPLILWLMIEFWWLYLTPVTSETVVTEVLGHRVTLPCLYSSWSHNSNSMCWGKDQCPYSGCKEALIRTDGMRVTSRKSAKYRLQGTIPRGDVSLTILNPSESDSGVYCCRIEVPGWFNDVKINVRLNLQRASTTTHRTATTTTRRTTTTSPTTTRQMTTTPAALPTTVVTTPDLTTGTPLQMTTIAVFTTANTCLSLTPSTLPEEATGLLTPEPSKEGPILTAESETVLPSDSWSSVESTSADTVLLTSKESKVWDLPSTSHVSMWKTSDSVSSPQPGASDTAVPEQNKTTKTGQMDGIPMSMKNEMPISQESKYGPPCPPCPFWVLVVVGGVLACYSLLVTVAFIIFWVRSKRSRLLHSDYMNMTPRRPGPTRKHYQPYAPPRDFAAYRSYFLGRLVPRGRGAAEAATRKQRITETESPYQELQGQRSDVYSDLNTQRPYYK
modifications: Tim4 binding domain-modified IgG4 hinge-CD28 transmembrane-CD28 costimulatory signaling domain-DAP12 signaling domain; SIGNAL (1)..(24)
B3: CTX140: Chimeric Tim4 receptor (SEQ ID NO:44): Tim4 binding domain, CD28 hinge, CD28 transmembrane, CD28 costimulatory, DAP12 signaling domain (protein)
chain: MSKEPLILWLMIEFWWLYLTPVTSETVVTEVLGHRVTLPCLYSSWSHNSNSMCWGKDQCPYSGCKEALIRTDGMRVTSRKSAKYRLQGTIPRGDVSLTILNPSESDSGVYCCRIEVPGWFNDVKINVRLNLQRASTTTHRTATTTTRRTTTTSPTTTRQMTTTPAALPTTVVTTPDLTTGTPLQMTTIAVFTTANTCLSLTPSTLPEEATGLLTPEPSKEGPILTAESETVLPSDSWSSVESTSADTVLLTSKESKVWDLPSTSHVSMWKTSDSVSSPQPGASDTAVPEQNKTTKTGQMDGIPMSMKNEMPISQIEVMYPPPYLDNEKSNGTIIHVKGKHLCPSPLFPGPSKPFWVLVVVGGVLACYSLLVTVAFIIFWVRSKRSRLLHSDYMNMTPRRPGPTRKHYQPYAPPRDFAAYRSYFLGRLVPRGRGAAEAATRKQRITETESPYQELQGQRSDVYSDLNTQRPYYK
modifications: Tim4 binding domain-CD28 hinge-CD28 transmembrane-CD28 costimulatory signaling domain-DAP12 signaling domain; SIGNAL (1)..(24)

Experiments:
Jeko-1 MCL tumor = experiment: JeKo-1 fLuc+ tumor model, chimeric Tim4 receptor T cells plus ibrutinib, bioluminescence imaging; type: in vivo; settings: NSG mice, 1e6 Jeko-1 fLuc+ i.v.; ibrutinib 125 mg/kg daily for 3 days, then 1e6 T cells i.v. and 8 mg/kg ibrutinib daily; FIG. 18
Description: FIG. 18. […] NSG mice were inoculated i.v. with 1e6 Jeko-1 fLuc+ cells. 4 days after inoculation, mice were dosed daily with 125 mg/kg ibrutinib by oral gavage for 3 days. 7 days after inoculation, 1e6 chimeric Tim4 receptor-T cells were infused i.v. Following T cell infusion, mice were dosed daily with 8 mg/kg ibrutinib. N=10 mice per group. Chimeric Tim4 receptor-T cells were generated from healthy donor PBMCs. CD4+ and CD8+ T cells were isolated and mixed at a 1:1 ratio, then stimulated overnight with TransACT. Activated T cells were transduced with 5MOI of the indicated construct (CTX137, CTX140, or CTX156). Cells were used for Incucyte experiments 7 days after transduction. NSG mice were inoculated intravenously with 1e6 Jeko-1 fLuc+ cells. Mice were dosed with 125 mg/kg of Ibrutinib by oral gavage daily for 3 days, then transfused with 1e6 CER-T cells and dosed daily with 8 mg/kg Ibrutinib for the duration of the experiment. Tumor growth was monitored by bioluminescence imaging (BLI) (sum of photons from 8 sec exposure). n=10 for each group.

[1] = tested on: JeKo-1 mantle cell lymphoma cells; experiment: Incucyte co-culture of chimeric Tim4 receptor T cells with JeKo-1 mCherry+ cells; type: cell-based; settings: 1:1 E:T ratio; T cells transduced with 5MOI; FIG. 17
Description: FIG. 17. Multiple chimeric Tim4 constructs eliminate ibrutinib treated JeKo-1 cells. T cells generated from healthy donor PBMCs were transduced with 5MOI of CTX137, CTX140, CTX143, or CTX156 (tEGFR control). Cells were cocultured at a 1:1 E:T ratio with Jeko-1 mCherry+ cells. Surviving Jeko-1 mCherry+ cells were counted every 2 hours and normalized to the count at 2 h. Wells were plated in duplicate. Error bars represent +/−SEM.
Chimeric Tim4 receptor (CTX137, CTX140, or CTX143) modified T cells were generated from healthy donor PBMCs. CD4+ and CD8+ T cells were isolated and mixed at a 1:1 ratio, then stimulated overnight with TransACT. Activated T cells were transduced with 5MOI of the indicated construct. Cells were used for Incucyte experiments 6 days after transduction. JeKo-1 mCherry+ cells were plated with chimeric Tim4 receptor-T cells at a 1:1 effector:target (E:T) ratio. Surviving Jeko-1 mCherry+ cells were counted every 2 hours and normalized to the count at 2 h. Wells were plated in duplicate.

[2] = tested on: JeKo-1 mantle cell lymphoma cells; experiment: Incucyte killing of ibrutinib pre-treated JeKo-1 mCherry+ cells by chimeric Tim4 receptor T cells; type: cell-based; settings: JeKo-1 pre-treated with 25 μM ibrutinib for 20 hours; 2:1 effector:target ratio; 0.5 μM ibrutinib present; FIG. 16
Description: FIG. 16. Chimeric Tim4 receptor killing of ibrutinib pre-treated JeKo-1 cells. JeKo-1 mantle cell lymphoma cells engineered to express mCherry were pre-treated with 25 μM ibrutinib for 20 hours. T cells transduced with chimeric Tim4 receptor (CTX137) or CTX156 (tEGFR control) were co-cultured at a 2:1 effector:target ratio with JeKo-1 cells mCherry+ cells in the presence of 0.5 μM ibrutinib. Surviving JeKo-1 mCherry+ cells were counted every 2 hours and normalized to the count at 2 h. Wells were plated in duplicate. Error bars represent +/−SEM.
Chimeric Tim4 receptor-T cells were generated from healthy donor PBMCs. CD4+ and CD8+ T cells were isolated and mixed at a 1:1 ratio, then stimulated overnight with TransACT. Activated T cells were transduced with 5MOI of the indicated construct (CTX137 or CTX156). Cells were used for Incucyte experiments 6 days after transduction. JeKo-1 cells engineered to express mCherry were treated with 25 μM BTK inhibitor ibrutinib for 20 hours then washed. T cells and target cells were incubated at a 2:1 effector:target ratio in the presence of 0.5 μM ibrutinib. Surviving JeKo-1 mChery+ cells were counted every 2 hours and normalized to the count at 2 hours. Wells were plated in duplicate.

Molecule | protection against JeKo-1 tumor (tumor growth by BLI) (Jeko-1 MCL tumor) | elimination of JeKo-1 cells (surviving mCherry+ cells normalized to count at 2 h) [1] | killing of ibrutinib pretreated JeKo-1 cells (surviving mCherry+ cells normalized to count at 2 h) [2]
B1 | provide early protection | eliminate JeKo-1 mantle cell lymphoma cells | induced killing
B2 | – | eliminate JeKo-1 mantle cell lymphoma cells | –
B3 | provide early protection | eliminate JeKo-1 mantle cell lymphoma cells | –

Reference: patent publication US20240058446A1, “CHIMERIC TIM4 RECEPTORS AND USES THEREOF” (CERO THERAPEUTICS, INC., priority 2019, published 2024)
